Assay results published in patent US20210024640A1 (REMD BIOTHERAPEUTICS, published 2021).
Several values for one entry are separate records, joined by “and”; a condition that tells them apart may be missing. Equal values may be shown once.

T1: OX40 on HT1080 OX40 stable cell line (Homo sapiens (Human), UniProt P43489 29-277)
T1 sequence: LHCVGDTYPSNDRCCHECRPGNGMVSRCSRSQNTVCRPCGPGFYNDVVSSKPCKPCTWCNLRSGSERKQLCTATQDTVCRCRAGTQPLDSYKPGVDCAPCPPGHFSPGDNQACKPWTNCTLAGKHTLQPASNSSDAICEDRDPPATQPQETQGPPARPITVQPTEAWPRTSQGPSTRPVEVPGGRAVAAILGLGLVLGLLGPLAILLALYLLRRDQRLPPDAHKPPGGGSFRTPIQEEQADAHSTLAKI

T2: human OX40 (NP_003318) (human, UniProt P43489 29-214, limits assumed)
T2 construct: also called HuOX40; CD134
T2 sequence: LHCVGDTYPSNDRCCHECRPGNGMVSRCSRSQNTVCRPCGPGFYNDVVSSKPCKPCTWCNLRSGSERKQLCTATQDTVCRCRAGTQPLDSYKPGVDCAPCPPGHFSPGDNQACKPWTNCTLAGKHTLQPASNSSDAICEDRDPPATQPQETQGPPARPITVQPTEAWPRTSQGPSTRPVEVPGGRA

T3: OX40-his (Homo sapiens (Human), UniProt P43489 29-214, limits assumed)
T3 construct: Analyte of the Biacore 8K assay; also called Ag OX40-his; Antigen OX40-his; not shown: His tag
T3 sequence: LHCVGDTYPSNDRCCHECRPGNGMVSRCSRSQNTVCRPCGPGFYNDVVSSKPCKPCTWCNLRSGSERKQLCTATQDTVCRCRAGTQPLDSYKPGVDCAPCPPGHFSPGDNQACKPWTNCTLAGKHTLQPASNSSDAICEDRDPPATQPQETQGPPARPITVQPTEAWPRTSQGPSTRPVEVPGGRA

T4: murine OX40 (murine, UniProt P47741 20-211, limits assumed)
T4 construct: also called MuOX40; mouse OX40
T4 sequence (looked up): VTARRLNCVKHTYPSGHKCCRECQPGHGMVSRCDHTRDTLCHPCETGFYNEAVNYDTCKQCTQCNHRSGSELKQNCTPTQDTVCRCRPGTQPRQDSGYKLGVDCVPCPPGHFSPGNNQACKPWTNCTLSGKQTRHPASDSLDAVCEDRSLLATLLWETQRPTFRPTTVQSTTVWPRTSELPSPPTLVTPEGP


What was measured:
[1] = molecular target: T1, OX40 on HT1080 OX40 stable cell line; assay: cell-based or functional assay
human OX40 (NP_003318) [2] = molecular target: T2, human OX40 (NP_003318); assay: ELISA, binding to human OX40
OX40-his [3] = molecular target: T3, OX40-his; assay: SPR Biacore (summary table; repeats Table 6)
Description: (§1) The affinities of purified antibody binding to OX40-his was determined using a Surface Plasmon Resonance (SPR) biosensor, Biacore 8k. Antibodies were immobilized on the sensor chip through capture method. Antigen OX40-his was used as the analyte. The data of dissociation (kd) and association (ka) rate constants were obtained using Biacore 8k evaluation software. The equilibrium dissociation constants (KD) were calculated from the ratio of kd over ka.

[4] = molecular target: T1, OX40 on HT1080 OX40 stable cell line; assay: cell-based or functional assay; remark: listed apart in the source
OX40-his [5] = molecular target: T3, OX40-his; assay: SPR Biacore 8K, antibody captured, OX40-his as analyte
Description: as §1

[6] = molecular target: T1, OX40 on HT1080 OX40 stable cell line; assay: cell-based or functional assay; remark: listed apart in the source
[7] = molecular target: T1, OX40 on HT1080 OX40 stable cell line; assay: cell-based or functional assay; remark: listed apart in the source
human OX40 (NP_003318) [8] = molecular target: T2, human OX40 (NP_003318); assay: ELISA, binding to human OX40; remark: listed apart in the source
murine OX40 = molecular target: T4, murine OX40; assay: ELISA, murine OX40 binding
cyno OX40 = molecular target: T5, cyno OX40 (cyno); assay: ELISA, binding to cyno OX40
T5 construct: also called CyOX40

human OX40 (NP_003318) [9] = molecular target: T2, human OX40 (NP_003318); assay: OX40L/OX40 blocking ELISA, purified proteins
human OX40 (NP_003318) [10] = molecular target: T2, human OX40 (NP_003318); assay: OX40L/OX40 blocking ELISA, purified proteins; OX40L/OX40 ELISA blocking, purified proteins
human OX40 (NP_003318) [11] = molecular target: T2, human OX40 (NP_003318); assay: ELISA, binding to human OX40 (summary table; repeats Table 3)

Binder	EC50 (read off the curve), IL-8 secretion, OX40L-free Ab agonist assay [1]	EC50 (human OX40 (NP_003318) [2])	Kd (OX40-his [3])	HT1080 + OX40L Antagonist Assay IC50 [4]	Kd (OX40-his [5])	koff (OX40-his [5])	kon (OX40-his [5])	cell-based functional assay in the absence of OX40L, EC50 [6]	HT1080 + OX4OL/IL-8 Antagonist Assay IC50 [7]	HT1080 Agonist Assay EC50 (IL-8 secretion) [7]	HT1080 Agonist Assay nBMAX [7]	EC50 (human OX40 (NP_003318) [8])	binding result (murine OX40)	EC50 (cyno OX40)	IC50 (human OX40 (NP_003318) [9])	IC50 (human OX40 (NP_003318) [10])	EC50 (human OX40 (NP_003318) [11])
humanized Ab REMD 277.1 (VH2-1/VL2-1) (antibody, human IgG1, kappa, V domains shown) VH: EVQLVQSGAEVKKPGESLKISCKGSGYTFTSYVMHWVRQMPGKGLEWMGYINPYNDGTKYNEKFKGQVTISADKSISTAYLQWSSLKASDTAMYYCARYYGSNYAMDYWGQGTMVTVSS VL: EIVLTQSPATLSLSPGERATLSCRASQDIRNYLNWYQQKPGQAPRLLIYYTSRLHSGIPARFSGSGSGTDFTLTISSLEPEDFAVYYCQQGNTLPWTFGQGTKVEIKR	~1 nM	0.96 nM	13.8 nM	1.53 NM	13.8 nM	0.000848 s⁻¹	61400 M⁻¹ s⁻¹	–	–	–	–	–	–	–	–	–	–
humanized Ab REMD 277.2 (VH2-1/VL5BM) (antibody, human IgG1, kappa, V domains shown) VH: EVQLVQSGAEVKKPGESLKISCKGSGYTFTSYVMHWVRQMPGKGLEWMGYINPYNDGTKYNEKFKGQVTISADKSISTAYLQWSSLKASDTAMYYCARYYGSNYAMDYWGQGTMVTVSS VL: DIQMTQSPSSLSASVGDRVTISCRASQDIRNYLNWYQQKPGKTVKLLIYYTSRLHSGVPSRFSGSGSGTDYTFTISSLQPEDIATYFCQQGNTLPWTFGGGTKLEIKR	–	3.1 nM	5.94 nM	3.52 NM	5.94 nM	0.000119 s⁻¹	20000 M⁻¹ s⁻¹	–	–	–	–	–	–	–	–	–	–
humanized Ab REMD 277 (VH2-1/VL2-2) (antibody, human IgG1, kappa, V domains shown) VH: EVQLVQSGAEVKKPGESLKISCKGSGYTFTSYVMHWVRQMPGKGLEWMGYINPYNDGTKYNEKFKGQVTISADKSISTAYLQWSSLKASDTAMYYCARYYGSNYAMDYWGQGTMVTVSS VL: EIVMTQSPATLSASPGERVTLSCRASQDIRNYLNWYQQKPGGAVRLLIYYTSRLHSGVPARFSGSGSGTDYTLTISSLEPEDYAVYFCQQGNTLPWTFGQGTKVEIKR	–	0.6 nM	6.3 nM	0.479 NM	6.3 nM	0.000178 s⁻¹	28200 M⁻¹ s⁻¹	1.56 nM	–	–	–	–	–	–	–	–	–
murine antibody A4 (13C2G10F10) (antibody, V domains shown, also called MAb A4; H4/L4) VH: EVQLQQSGPELVKPGASVKMSCKASGYTFTSYIMHWVKQKPGQGLEWIGYINPYNDGTKYNEKFKGKATLTSDKSSSTAYMELSSLTSEDSAVYYCANYYGSSYTMDYWGQGTSVTVSS VL: DIQMTQTTSSLSASLGDRVTISCRASQDIRNYLNWYQQKPDGSVKLLIYYTSRLHSGVPSRFSGSGSGTDYSLTISNLEQEDIATYFCQQGNTLPWTFGGGTKLEIK	–	–	–	–	–	–	–	–	1.35 nM	8.08 nM	1.52	0.0157 nM and 0.0151 nM	no binding	0.0305 nM	0.0683 nM	–	–
murine antibody A3 (14F2C2D7) (antibody, V domains shown, also called MAb A3; H3/L3) VH: QVQLKESGPGLVAPSQSLSITCTVSGFSLSSYGVHWVRQPPGKGLEWLGVIWAGGSTDYNSALMSRLSISKDNSKSQVVLKMNSLQTDDTAMYYCAREEVWDWGQGTLVTVSA VL: DIQMTQTTSSLSASLGDRVTISCRASQDISNYLNWYQQKPDGTVKLLIYYTSRLQSGVPSRFSGSGSGTDYSLTISNLEQEDIATYFCQQGNTLPLTFGAGTKLELK	–	–	–	–	–	–	–	–	–	6.74 nM	4.49	0.0128 nM and 0.0136 nM	no binding	0.0171 nM	–	0.0293 nM	–

Continued, values first:

EC50 (read off the curve), IL-8 secretion, OX40L-free Ab agonist assay [1]	EC50 (human OX40 (NP_003318) [2])	Kd (OX40-his [3])	HT1080 + OX40L Antagonist Assay IC50 [4]	Kd (OX40-his [5])	koff (OX40-his [5])	kon (OX40-his [5])	cell-based functional assay in the absence of OX40L, EC50 [6]	HT1080 + OX4OL/IL-8 Antagonist Assay IC50 [7]	HT1080 Agonist Assay EC50 (IL-8 secretion) [7]	HT1080 Agonist Assay nBMAX [7]	EC50 (human OX40 (NP_003318) [8])	binding result (murine OX40)	EC50 (cyno OX40)	IC50 (human OX40 (NP_003318) [9])	IC50 (human OX40 (NP_003318) [10])	EC50 (human OX40 (NP_003318) [11])	Binder
–	–	–	–	–	–	–	–	–	2.8 nM	3.2	0.0081 nM and 0.0079 nM	no binding	0.0143 nM	0.0382 nM	–	–	murine antibody A5 (40H11C2F5) (antibody, V domains shown, also called MAb A5; H5/L5) VH: EVQLQQSGPELVKPGASVKISCKASGYTFTENYMNWVKQSHGKSLEWIGDINRNNGGTRYNQKFKGKATLTVDKSSSTDYMELRSLTSEDSAVYYCGGTVVGYFDVWGTGTTVTVSS VL: DIQMTQIITSLSASLGDRVTISCRSSQDISNYLNWYQQKPDGTVKLLIYYTSRLKSGVPSRFSGSGSGTDYSLTISNLEQEDIATYFCQQGNTLPWTFGGGTKLEIK
–	0.028 nM	9.18 nM	109 NM	9.18 nM	0.000865 s⁻¹	94200 M⁻¹ s⁻¹	–	–	–	–	–	–	–	–	–	–	murine-human chimeric antibody derived from murine antibody A6 (chimeric IgG) (antibody, V domains shown, also called chimeric OX40 Ab) VH: EVQLQQSGPELVKPGASVKMSCKASGYTFTSYVMHWVKQKPGQGLEWIGYINPYNDGTKYNEKFKGKATLTSDKSSSTAYMELSSLTSEDSAVYYCANYYGSNYAMDYWGQGTSVTVSS VL: DIQMTQTTSSLSASLGDRVTISCRASQDIRNYLNWYQQKPDGTVKLLIYYTSRLHSGVPSRFSGSGSGTDYSLTISNLEQEDIATYFCQQGNTLPWTFGGGTKLEIKR
–	–	–	1.34 NM	–	–	–	–	–	1.56 nM	4.54	0.0275 nM and 0.0272 nM	no binding	0.0446 nM	–	–	0.0275 nM	murine antibody A6 (2G2E2D8) (antibody, V domains shown, also called MAb A6; Murine A6) VH: EVQLQQSGPELVKPGASVKMSCKASGYTFTSYVMHWVKQKPGQGLEWIGYINPYNDGTKYNEKFKGKATLTSDKSSSTAYMELSSLTSEDSAVYYCANYYGSNYAMDYWGQGTSVTVSS VL: DIQMTQTTSSLSASLGDRVTISCRASQDIRNYLNWYQQKPDGTVKLLIYYTSRLHSGVPSRFSGSGSGTDYSLTISNLEQEDIATYFCQQGNTLPWTFGGGTKLEIK
